In series [1] the target is T3 SAMase E68Q/Q94A, C-terminally His6-tagged (bacteriophage T3) (UniProt P07693). Description: mass photometry.
The target in series [2] is T3 SAMase, wild type, C-terminally His6-tagged (bacteriophage T3) (UniProt P07693). The series is described as follows: cryo-EM structure.
The series “cryo-EM structure” concerns the molecule itself. The series is described as follows: cryo-EM structure.
Series [3] has as its target T3 SAMase E68Q/Q94A, C-terminally His6-tagged (bacteriophage T3) (UniProt P07693). Description: SEC-SAXS. Background: Size exclusion chromatography separates by hydrodynamic size, large species first.
The target in series [4] is T3 SAMase, wild type, C-terminally His6-tagged (bacteriophage T3) (UniProt P07693). The series is described as follows: SEC-SAXS.

The stoichiometry N is a count of units in the complex or per binding partner.

B1: MetK, SAM synthase (methionine adenosyltransferase) of E. coli, endogenous (enzyme, UniProt P0A817 1-384, looked up)
chain: MAKHLFTSESVSEGHPDKIADQISDAVLDAILEQDPKARVACETYVKTGMVLVGGEITTSAWVDIEEITRNTVREIGYVHSDMGFDANSCAVLSAIGKQSPDINQGVDRADPLEQGAGDQGLMFGYATNETDVLMPAPITYAHRLVQRQAEVRKNGTLPWLRPDAKSQVTFQYDDGKIVGIDAVVLSTQHSEEIDQKSLQEAVMEEIIKPILPAEWLTSATKFFINPTGRFVIGGPMGDCGLTGRKIIVDTYGGMARHGGGAFSGKDPSKVDRSAAYAARYVAKNIVAAGLADRCEIQVSYAIGVAEPTSIMVETFGTEKVPSEQLTLLVREFFDLRPYGLIQMLDLLHPIYKETAAYGHFGREHFPWEKTDKAQLLRDAAGLK
B1: the stoichiometry N (SAMase per MetK subunit (4:4)) in series [1], in series [2], in series [3] and in series [4] was 1 each time. For the same molecule, the “stoichiometry N” value in “cryo-EM structure” stood at 4.

(Values after doi:10.1101/2023.02.27.530186 (bioRxiv, 2023).)
